Measurements reported in a protein production outcome set (Wang et al. 2014).

Assay: label from the status in PepcDB records
With “MKTLLIIAHAPSENTKLMAEAVLKGAQHPDIEQVQTRWVRPLEATPEDVLSCDGIIMGTTENLGYMSGALKDFFDRCYYPCLEVKQGLPCALYVRAGNDGTGTCRAVETICTGLRWNWIQPPLVCRGDWQTLFIEQCEELGMTMAAGLDVGIY” the protein production was “failed”. For “MKTNSEELTVFVQVVESGSFSRAAEQLEMANSAVSRIVKRLEEKLGVNLLNRTTRQLNLTEEGAQYFRRAQRILQEMAAAETEMLAVHEVPQGVLRVDSAMPMVLHLLAPLAAKFNERYPHIRLSLVSSEGYINLIERKVDIALRAGELDDSGLRARHLFDSHFRVVASPEYLAKHGTPQSAEDLANHQCLGFTEPGSLNTWAVLDAQGNPYKISPHFTASSGEILRSLCLSSCGIACLSDFLVDNDITEGKLIPLFAEQTSNKTHPFNAVYYSDKAVNLRLRVFLDFLVKELGKNMNRTNTK”, the protein production was “not failed”. For “MKTRKIPLRKSVVSNEVIDKRDLLRIVKNKEGQVFIDPTGKANGRGAYIKLDNAEALEAKKKKVFNRSFSMEVEESFYDELIAYVDHKVKRRELGLE”, the protein production was “not failed”. With “MKTSIIILTCNNLRYSRRCIESIKKYTEKEAYEIIVVDNNSNDGTRNWLSKQKAIKKIYNNVNVGFPRGCNMGIKVACGSEVLLLNNDVVVTHNWLNNLRNCLYSSYEIGAVGPISNNCSNGQKINVRYDSIEDMHRFSKKYNISNKKKWTEVKRLIGFCFLIKRNVIRKVGLFDERFTPGNFEDDDYCIRMRKIGFRLMLCKDTFVHHYGSVSFKNTQYLKLLEVNKSKLEKKWGKSYDKLVLEHHHHHH” the protein production was “failed”. For “MKTSRECFSSAGGSPMIRATSARSPPVPQSALPIGSLLSAPRPAFTETEAQGLARTHFGLDGTALPLTSERDQNFRLATPRGAFVLKIANAAEPRGVTECQTLALLHLEAVAPGLPVPRVIRTREGAPWTELAGGNLLRLLTWVEGEPLWRARRGAAQRRAVGLCLGGIAAALADFSHPSADHELLWDIRHAARLRALLPAIPDARTAVLAERVLDRFETAVAPRLADLPWQVVHNDMNPHNIMVDPANADRVAGVIDFGDLVRTARVCDLAVAGSYQVDPGDPAGTLADLVAGYHAANPLRPEEVELLPDLVAARMVTTIAIASARAAQQPDNAPYILRNLPASAAGLEALTALAPGAAAAALLRATEAA”, the protein production was “failed”. In the case of “MKTTFLSLCFLLFFPLTGYSWQTAVTHISFHDLQRHRQLDSIIYYPTADQGETQLLSDTAVFRGISVLPNAPLAEGKFPLVVLSHGSGGNNTSLAWLADKLVQQGMVVVAANHPGSTTGDSIPAQSAQLWLQTEDISFIISTLLSDPRWKSALDEQAIGVIGHSKGGYSAIATLGATLSRPHFIASCQQQPEQPNCQFYTHAGVTLDQLSAEKFEGNYADKRLRFAIALDPGMVPFYQKSSLLHLSAPLLLINADYFISPNESLNLGGATWVKQLNQPGITAVTLTKSGHFDFLPLCKPAAGAILAEEGEAFICATPAVEREKLHQQTVQQILTYLQ”, the protein production is reported as “failed”. In the case of “MKTTKIVIASLVSLTMVSNPLLTFAATNDVIDNTTEITTDKETSSTQPTIKNTLKAGQTQSFNDWFPDDNFASEVAAAFEMQATDTISEEQLATLTSLDCHNSSITDMTGIEKLTGLTKLICTSNNITTLDLSQNTNLTYLACDSNKLTNLDVTPLTKLTYLNCDTNKLTKLDVSQNPLLTYLNCARNTLTEIDVSHNTQLTELDCHLNKKITKLDVTPQTQLTTLDCSFNKITELDVSQNKLLNRLNCDTNNITKLDLNQNIQLTFLDCSSNKLTEIDVTPLTQLTYFDCSVNPLTELDVSTLSKLTTLHCIQTDLLEIDLTHNTQLIYFQAEGCRKIKELDVTHNTQLYLLDCQAAGITELDLSQNPKLVYLYLNNTELTELDVSHNTKLKSLSCVNAHIQDFSSVGKIPALNNNFEAEGQTITMPKETLTNNSLTIAVSPDLLDQFGNPMNIEPGDGGVYDQATNTITWENLSTDNPAVTYTFTSENGAIVGTVTTPFEAPQPIKGEDVTVHYLDDKGEKLADDEVLSGNLDDPYTSSAKDIPDYTLTTTPDNATGTFTTTSQSVTYVYTKNIVAAEPVTVNYVDDTGKTLSPSEILNGNVGDTYNATAKQIDGYTLSAEPTNATGQFTSSAQTVNYIYTKNPAPEKGVVEIHYVDEDNKQLNSTTEISGTIGDNYTTEPKTIEGYTLTTTPGNATGTFTTGSQTVTYVYTKNIEAAEPITVNYVDANGKTLAPSETLNGNVGDTYKATAKQIDGYTLSAEPTNATGQFTSSAQTVNYIYTKNTNTDQPLPTKKPTNTTPTKPSNLKTTEVKKASDTLPKTGDSAPWKSALLGVFLSSTALVIWKKKK”, the protein production is reported as “failed”.
